Data from patent publication US20140050720A1, “ULTRALONG COMPLEMENTARITY DETERMINING REGIONS AND USES THEREOF” (THE SCRIPPS RESEARCH INSTITUTE, priority 2012, published 2014).

Key:
[1] = test system: Parental U2OS; assay: Flow cytometry binding to parental cells; details: cell culture supernatant containing expressed IgG, anti-Human Fc detection
Description: Briefly, a cell line expressing functionally validated CXCR1 derived from U2OS cells was obtained from DiscoveRx and cultured per manufacturer's instructions (Cat#93-0226C3, DiscoveRx Corporation, Freemont, Calif.). The parental cell line U20S was obtained from ATCC and cultured under the same conditions as the CXCR1 cells. Cell culture supernatants from Example 2 above were then tested for binding to cells by flow cytometry. The adherent U20S or CXCR1-U20S cells were dissociated with Accutase (Innovative Cell Technologies, Inc., San Diego, Calif.), neutralized with an equal volume of media containing 10% serum, centrifuged at 1000 g, and resuspended in PBS with 2% BSA. Next, cells were dispensed into microtiter plates to achieve between 30,000 to 300,000 cells per well, centrifuged again, and resuspended in cell culture supernatant containing expressed IgG, or a dilution of IgG-containing cell culture supernatant. A fluorescent-conjugated anti-Human Fc antibody was used to detect binding of the expressedBLV1H12-IL8 fusion proteins to cells.

[2] = test system: Mouse NFS-60 cells; assay: Proliferation assay on mouse NFS-60 cells (AlamarBlue); type: cell-based; details: for F.I. (AlamarBlue fluorescence at 595 nm, cell viability): 72 hours
Description: Mouse NFS-60 cells were obtained from American Type Culture Collection (ATCC), VA, and cultured in RPMI-1640 medium supplemented with 10% fetal bovine serum (FBS), 0.05 mM 2-mercapoethanol and 62 ng/ml human macrophage colony stimulating factor (M-CSF). For proliferation assay, mouse NFS-60 cells were washed three times with RPMI-1640 medium and resuspended in RPMI-1640 medium with 10% FBS and 0.05 mM 2-mercapoethanol at a density of 1.5×10^5 cells/ml. In 96-well plates, 100 μl of cell suspension was added into each well, followed by the addition of varied concentrations of bGCSF, BLV1H12 antibody, and the immunoglobulin constructs described herein, Equal volume of PBS buffer was added into the control wells. The plates were incubated at 37° C. in a 5% CO2 incubator for 72 hours. Cells were then treated with AlamarBlue (Invitrogen) ( 1/10 volume of cell suspension) for 4 hours at 37° C. Fluorescence at 595 nm for each well was read to indicate the cell viability.

[3] = test system: human peripheral blood mononuclear cells (PBMCs); assay: Inhibition of human PBMC activation (secreted TNF-α ELISA); type: cell-based; details: PBMCs activated by anti-CD3 and CD28 antibodies, 24 h
Description: Human PBMCs were isolated from fresh venous blood of healthy donors through ficoll gradient centrifugation, followed by resuspension in RPMI1640 medium with 10% FBS and plating in 96-well plates at a density of 1×10^6 cells/mL. Human T cells were purified from the isolated PBMCs using T cell enrichment kit. Purified PBMCs and T cells were pretreated for 1 h at 37° C. with 5% CO2 with various concentrations of purified BLV1H12-Moka1 fusion antibodies and then activated by anti-CD3 and CD28 antibodies. After 24 h treatment, supernatant was collected for measurement of the levels of secreted TNF-α using ELISA kit.

[4] = Pharmacokinetics of BLV1H12-bGCSF fusion antibodies in mice; type: in vivo; details: BALB/c mice, 70 μg injected
Description: For PK study in mice, 70 μg of the immunoglobulin constructs described herein were injected into 3 BALB/c mice per group. Blood samples were drawn from time 0 to 14 days with extended intervals and analyzed by ELISA using anti-human IgG Fc antibody with horseradish peroxidase (HRP) labeled (KPL) and anti-6×His antibody with HRP labeled (Clontech). Data were normalized by taking maximal concentration at the first time point (30 min).

B1: Ab: bovine BLV1H12 antibody with ultralong CDR3, no inserted polypeptide; heavy chain SEQ ID NO: 24, light chain SEQ ID NO: 23 (antibody)
heavy: QVQLRESGPSLVKPSQTLSLTCTASGFSLSDKAVGWVRQAPGKALEWLGSIDTGGNTGYNPGLKSRLSITKDNSKSQVSLSVSSVTTEDSATYYCTSVHQETKKYQSCPDGYRERSDCSNRPACGTSDCCRVSVFGNCLTTLPVSYSYTYNYEWHVDVWGQGLLVTVSS
light: QAVLNQPSSVSGSLGQRVSITCSGSSSNVGNGYVSWYQLIPGSAPRTLIYGDTSRASGVPDRFSGSRSGNTATLTISSLQAEDEADYFCASAEDSSSNAVFGSGTTLTVLGQPKSPPSVTLFPPSTEELNGNKATLVCLISDFYPGSVTVVWKADGSTITRNVETTRASKQSNSKYAASSYLSLTSSDWKSKGSYSCEVTHEGSTVTKTVKPSECS
Median Arbitrary Fluorescence Units (AFU) [1]: 4 AFU
proliferative activity on mouse NFS-60 cells [2]: lack of proliferative activity
F.I. (AlamarBlue fluorescence at 595 nm, cell viability) ([2]; 0.45725 ng/mL): 1040
F.I. (AlamarBlue fluorescence at 595 nm, cell viability) ([2]; 1.37174 ng/mL): 1010
F.I. (AlamarBlue fluorescence at 595 nm, cell viability) ([2]; 4.11523 ng/mL): 983.3
F.I. (AlamarBlue fluorescence at 595 nm, cell viability) ([2]; 12.34568 ng/mL): 971.8
F.I. (AlamarBlue fluorescence at 595 nm, cell viability) ([2]; 37.03704 ng/mL): 960.5
F.I. (AlamarBlue fluorescence at 595 nm, cell viability) ([2]; 111.11111 ng/mL): 991.83
F.I. (AlamarBlue fluorescence at 595 nm, cell viability) ([2]; 333.33333 ng/mL): 964.798
F.I. (secreted TNF-α, ELISA) ([3]; 2 nM): 2334
F.I. (secreted TNF-α, ELISA) ([3]; 20 nM): 2186
F.I. (secreted TNF-α, ELISA) ([3]; 200 nM): 1982
F.I. (secreted TNF-α, ELISA) ([3]; 400 nM): 1733
Percentage (normalized to maximal concentration at the first time point, 30 min) ([4]; day 0.021): 100.00%
Percentage (normalized to maximal concentration at the first time point, 30 min) ([4]; day 0.042): 106.09%
Percentage (normalized to maximal concentration at the first time point, 30 min) ([4]; day 0.083): 95.88%
Percentage (normalized to maximal concentration at the first time point, 30 min) ([4]; day 0.125): 86.54%
Percentage (normalized to maximal concentration at the first time point, 30 min) ([4]; day 0.250): 74.26%
Percentage (normalized to maximal concentration at the first time point, 30 min) ([4]; day 1.000): 52.43%
Percentage (normalized to maximal concentration at the first time point, 30 min) ([4]; day 2.000): 39.46%
Percentage (normalized to maximal concentration at the first time point, 30 min) ([4]; day 3.000): 36.97%
Percentage (normalized to maximal concentration at the first time point, 30 min) ([4]; day 8.000): 45.44%
Percentage (normalized to maximal concentration at the first time point, 30 min) ([4]; day 10.000): 40.98%
Percentage (normalized to maximal concentration at the first time point, 30 min) ([4]; day 14.000): 51.96%
